Laboratory results: PMC12569377, “P-Rex1 limits the agonist-induced internalization of GPCRs independently of its Rac-GEF activity” (Cell Reports, 2025)

Columns and labels:
GST-Grk2 = target: T1, GST-Grk2 (Homo sapiens, UniProt P25098); experiment: ADP-Glo kinase assay with tubulin; type: biochemical; conditions: […] ATP, […] pig brain tubulin, […] MgCl2, pH […] °C; no P-Rex1
T1 construct: recombinant GST fusion from Sf9 cells, commercial
T1 sequence (P25098 1-689): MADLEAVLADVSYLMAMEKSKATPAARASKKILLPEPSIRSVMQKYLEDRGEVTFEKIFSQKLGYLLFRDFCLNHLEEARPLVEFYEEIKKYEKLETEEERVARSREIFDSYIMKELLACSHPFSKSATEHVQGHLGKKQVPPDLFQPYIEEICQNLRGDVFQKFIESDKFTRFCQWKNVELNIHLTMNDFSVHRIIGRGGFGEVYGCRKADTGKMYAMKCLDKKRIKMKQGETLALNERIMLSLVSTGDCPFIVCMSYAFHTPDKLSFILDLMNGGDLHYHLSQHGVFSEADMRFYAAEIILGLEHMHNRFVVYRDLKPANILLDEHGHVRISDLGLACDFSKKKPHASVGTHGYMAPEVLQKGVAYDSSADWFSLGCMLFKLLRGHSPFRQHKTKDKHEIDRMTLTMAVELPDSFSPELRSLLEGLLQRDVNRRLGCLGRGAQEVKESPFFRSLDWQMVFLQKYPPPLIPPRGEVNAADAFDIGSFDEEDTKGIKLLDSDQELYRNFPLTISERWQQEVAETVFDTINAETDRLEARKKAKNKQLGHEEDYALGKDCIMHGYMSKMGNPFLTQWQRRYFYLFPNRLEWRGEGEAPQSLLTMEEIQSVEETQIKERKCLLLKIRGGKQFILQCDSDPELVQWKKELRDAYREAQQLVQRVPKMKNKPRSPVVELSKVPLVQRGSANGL

[1] = target: T2, Recombinant human wild type His-P-Rex2 (human, UniProt Q70Z35 1-1606); experiment: pull-down; 5 pmol P-Rex1 or P-Rex2 protein (2.5 pmol for P-Rex1 mutants) with 5 pmol GST, GST-Grk2 or GST-Grk5 in 20 μL detergent-free buffer (50 mM HEPES pH 7.2, 150 mM NaCl), 1 h on ice; GST proteins isolated on magnetic glutathione agarose, 45 min at 4°C, 4 washes in lysis buffer 2 (1% NP-40); western blot with P-Rex1 or P-Rex2 and GST antibodies; conditions: both partners purified
T2 construct: source: baculovirus-infected Sf9 cells, purified (Ni-NTA agarose, PD-10 desalting); not shown: 6His, N-terminal, kept
T2 sequence (Q70Z35 whole entry): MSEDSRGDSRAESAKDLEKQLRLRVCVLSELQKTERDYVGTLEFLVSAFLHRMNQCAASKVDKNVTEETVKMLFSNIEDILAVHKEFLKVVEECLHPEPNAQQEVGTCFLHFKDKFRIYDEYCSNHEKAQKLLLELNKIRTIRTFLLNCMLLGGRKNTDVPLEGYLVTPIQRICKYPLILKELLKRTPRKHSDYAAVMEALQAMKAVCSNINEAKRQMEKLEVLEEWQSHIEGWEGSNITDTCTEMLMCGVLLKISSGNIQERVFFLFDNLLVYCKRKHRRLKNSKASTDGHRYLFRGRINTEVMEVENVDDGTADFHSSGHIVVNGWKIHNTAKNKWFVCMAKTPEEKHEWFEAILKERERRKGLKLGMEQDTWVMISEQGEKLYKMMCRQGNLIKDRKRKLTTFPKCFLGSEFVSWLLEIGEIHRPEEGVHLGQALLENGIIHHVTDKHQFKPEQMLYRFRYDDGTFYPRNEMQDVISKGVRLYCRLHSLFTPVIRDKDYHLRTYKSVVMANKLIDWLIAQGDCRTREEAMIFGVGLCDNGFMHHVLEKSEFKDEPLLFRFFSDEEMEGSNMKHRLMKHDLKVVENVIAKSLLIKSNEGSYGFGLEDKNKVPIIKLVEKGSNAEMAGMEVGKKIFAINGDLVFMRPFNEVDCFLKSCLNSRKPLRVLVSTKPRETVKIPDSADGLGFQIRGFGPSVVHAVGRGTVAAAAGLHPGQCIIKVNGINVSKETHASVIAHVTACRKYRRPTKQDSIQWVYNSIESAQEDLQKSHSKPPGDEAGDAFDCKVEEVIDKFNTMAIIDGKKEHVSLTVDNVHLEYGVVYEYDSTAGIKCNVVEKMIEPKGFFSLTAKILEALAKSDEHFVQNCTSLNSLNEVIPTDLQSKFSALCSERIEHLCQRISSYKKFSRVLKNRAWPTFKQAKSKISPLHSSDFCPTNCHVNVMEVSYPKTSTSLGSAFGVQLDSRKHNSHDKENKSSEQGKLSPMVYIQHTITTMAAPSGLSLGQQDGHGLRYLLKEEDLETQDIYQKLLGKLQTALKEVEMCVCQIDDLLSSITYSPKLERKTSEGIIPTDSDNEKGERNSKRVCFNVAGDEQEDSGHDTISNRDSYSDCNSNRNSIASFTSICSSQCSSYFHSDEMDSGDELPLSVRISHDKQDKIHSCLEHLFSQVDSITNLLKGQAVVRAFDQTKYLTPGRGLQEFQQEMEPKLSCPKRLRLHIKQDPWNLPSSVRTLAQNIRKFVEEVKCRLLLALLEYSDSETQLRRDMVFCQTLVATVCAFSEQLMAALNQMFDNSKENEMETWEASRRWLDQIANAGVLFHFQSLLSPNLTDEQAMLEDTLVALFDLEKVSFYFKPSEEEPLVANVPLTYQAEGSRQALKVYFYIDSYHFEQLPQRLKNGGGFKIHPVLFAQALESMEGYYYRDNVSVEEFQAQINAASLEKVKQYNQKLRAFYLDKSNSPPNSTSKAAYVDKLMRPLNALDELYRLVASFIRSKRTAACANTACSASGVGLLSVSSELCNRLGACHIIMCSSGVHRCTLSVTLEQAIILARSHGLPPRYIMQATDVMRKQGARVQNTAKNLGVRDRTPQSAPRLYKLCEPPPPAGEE

[2] = target: T3, GEF-dead EE-P-Rex1 (E56A, N238A) (human, UniProt Q8TCU6 1-1659, E56A | N238A); experiment: as above; conditions: both partners purified
T3 construct: P-Rex1, human, with point mutations E56A and N238A in the DH domain that abolish Rac-GEF activity; also called GEF-dead P-Rex1; source: baculovirus-infected Sf9 cells, purified using the EE tag
T3 sequence (Q8TCU6 whole entry E56A/N238A, the tested form may be a part): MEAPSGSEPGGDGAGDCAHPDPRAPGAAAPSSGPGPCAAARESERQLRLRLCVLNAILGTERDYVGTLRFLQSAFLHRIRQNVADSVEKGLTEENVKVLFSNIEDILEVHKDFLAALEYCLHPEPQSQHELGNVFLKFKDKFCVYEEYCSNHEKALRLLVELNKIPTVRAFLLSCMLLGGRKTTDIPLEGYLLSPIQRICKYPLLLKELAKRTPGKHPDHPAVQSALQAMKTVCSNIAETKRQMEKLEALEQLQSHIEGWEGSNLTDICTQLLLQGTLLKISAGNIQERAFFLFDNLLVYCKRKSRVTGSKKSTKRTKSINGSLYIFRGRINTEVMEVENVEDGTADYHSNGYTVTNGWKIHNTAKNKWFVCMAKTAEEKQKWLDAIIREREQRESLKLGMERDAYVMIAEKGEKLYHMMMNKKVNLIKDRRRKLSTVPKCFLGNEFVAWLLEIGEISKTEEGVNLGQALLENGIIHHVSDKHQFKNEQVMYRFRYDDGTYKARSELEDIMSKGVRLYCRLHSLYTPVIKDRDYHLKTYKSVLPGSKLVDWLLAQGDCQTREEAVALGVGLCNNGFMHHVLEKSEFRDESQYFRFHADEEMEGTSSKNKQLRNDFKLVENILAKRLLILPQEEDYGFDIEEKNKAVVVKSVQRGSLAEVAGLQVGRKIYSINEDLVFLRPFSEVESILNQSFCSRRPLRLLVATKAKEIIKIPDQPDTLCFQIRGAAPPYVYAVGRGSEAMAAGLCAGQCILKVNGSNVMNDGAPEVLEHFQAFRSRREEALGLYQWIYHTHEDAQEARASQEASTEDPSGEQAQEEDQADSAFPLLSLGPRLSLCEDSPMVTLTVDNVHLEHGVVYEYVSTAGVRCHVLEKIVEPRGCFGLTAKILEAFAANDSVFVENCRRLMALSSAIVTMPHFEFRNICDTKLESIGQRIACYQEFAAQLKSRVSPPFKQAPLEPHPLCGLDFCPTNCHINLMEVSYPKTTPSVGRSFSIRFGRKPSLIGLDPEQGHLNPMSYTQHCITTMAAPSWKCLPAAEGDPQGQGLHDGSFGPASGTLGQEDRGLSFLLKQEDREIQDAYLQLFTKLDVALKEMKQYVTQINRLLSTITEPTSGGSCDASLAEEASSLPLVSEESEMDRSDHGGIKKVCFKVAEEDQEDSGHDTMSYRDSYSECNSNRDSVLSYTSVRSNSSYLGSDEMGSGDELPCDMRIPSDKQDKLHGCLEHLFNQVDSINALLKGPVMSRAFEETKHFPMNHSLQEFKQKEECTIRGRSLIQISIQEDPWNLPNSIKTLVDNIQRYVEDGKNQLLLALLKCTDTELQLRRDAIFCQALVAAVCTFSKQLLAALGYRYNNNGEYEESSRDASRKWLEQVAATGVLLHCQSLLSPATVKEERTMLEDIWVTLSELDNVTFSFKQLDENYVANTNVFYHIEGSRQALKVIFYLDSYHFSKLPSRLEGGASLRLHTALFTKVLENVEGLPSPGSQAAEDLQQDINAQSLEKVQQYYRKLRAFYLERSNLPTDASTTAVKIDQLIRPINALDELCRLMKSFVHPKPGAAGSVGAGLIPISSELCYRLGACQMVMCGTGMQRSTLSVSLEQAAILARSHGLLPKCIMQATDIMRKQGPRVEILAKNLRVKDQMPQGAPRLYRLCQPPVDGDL

[3] = target: T4, GEF-dead His-P-Rex2 (P-Rex2 E30A,N212A) (human, UniProt Q70Z35 1-1606, E30A | N212A); experiment: as above; conditions: both partners purified
T4 construct: P-Rex2, human, with alanine mutations at Glu30 and Asn212 in the catalytic DH domain; also called GEF-dead P-Rex2; source: baculovirus-infected Sf9 cells, purified (Ni-NTA agarose, PD-10 desalting); not shown: 6His, N-terminal, kept
T4 sequence (Q70Z35 whole entry E30A/N212A, the tested form may be a part): as the sequence (Q70Z35 whole entry) above, with E30A, N212A counted along it

[4] = target: T5, Recombinant human wild type EE-P-Rex1 (human, UniProt Q8TCU6 1-1659); experiment: pull-down; as the GST-Grk2 pull-down of EE-P-Rex1, with increasing concentrations of prenylated EE-Gβ1γ2 (up to 20 pmol per sample) added during the binding assay; 0.008% cholate in all samples; conditions: both partners purified
T5 construct: source: baculovirus-infected Sf9 cells, purified using the EE tag
T5 sequence (Q8TCU6 whole entry): as the sequence (Q8TCU6 whole entry E56A/N238A, the tested form may be a part) above, with A56E, A238N counted along it

## Nc1ncnc2c1ncn2[C@@H]1O[C@H](COP(=O)(O)OP(=O)(O)OP(=O)(O)O)[C@@H](O)[C@H]1O [ATP]
GST-Grk2
  ADP-Glo kinase assay with tubulin: GST-Grk2 was able to phosphorylate tubulin

B1: Recombinant human GST-Grk2 (enzyme, UniProt P25098 1-689, looked up)
chain: T1 sequence (P25098 1-689)
notes: G protein-coupled receptor kinase 2 (Grk2), human, Sf9 cell-derived recombinant GST fusion; also called G protein-coupled receptor kinase 2; source: bought: Abcam (ab125620), Sf9 cell-derived, purified recombinant
[1]
  binding result: binds
[2]
  binding result: binds
[3]
  binding result: binds
[4]
  binding result: binds
